Data on four molecules can be found in patent publication US20080063635A1 (Kyowa Kirin, published 2008).

The target of the experiment is T1, CD40 (UniProt P25942 21-277, limits assumed).
T1 construct: whole, on cells; also called CD40 on Ramos cells
The experiment in a line: flow cytometry on Ramos cells, R-PE anti-human antibody. The protocol: A Ramos cell line was suspended in a PBS staining buffer (SB) containing 0.1% NaN₃ and 2% FCS at a concentration of 2×10⁶/ml. The cell suspension (100 μl/well) was dispensed into wells of a 96-well round-bottom plate (manufactured by Becton, Dickinson and Company). Each hybridoma culture supernatant (50 μl) was added thereto, followed by incubation at a temperature below freezing for 30 minutes. A human IgG1 antibody to human serum albumin as a negative control was adjusted to a concentration of 2 μg/ml in a hybridoma culture medium. The medium (50 μl) was added to the plate, followed by incubation at a temperature below freezing for 15 minutes. After washing the plate with SB, 50 μl of a 250-fold diluted R-PE fluorescently labeled anti-human antibody (Southern Biotechnology Associates, Inc.) was added to the plate, followed by incubation at a temperature below freezing for 15 minutes. After washing with SB twice, the plate was suspended in 300 to 500 μl of a FACS buffer, and the fluorescence intensity of each cell was measured using FACS (FACSort, FACScan, manufactured by Becton, Dickinson and Company).
Background: Flow cytometry measures light scatter and fluorescence of single cells or particles in a stream.

T1 sequence (P25942 21-277 limits assumed): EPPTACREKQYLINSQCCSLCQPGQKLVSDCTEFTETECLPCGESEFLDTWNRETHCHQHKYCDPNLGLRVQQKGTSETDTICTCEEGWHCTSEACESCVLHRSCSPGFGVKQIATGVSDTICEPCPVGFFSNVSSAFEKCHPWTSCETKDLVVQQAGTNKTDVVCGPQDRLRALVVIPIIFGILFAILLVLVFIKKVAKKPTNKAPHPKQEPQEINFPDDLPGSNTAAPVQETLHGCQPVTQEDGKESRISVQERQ

B1: 4D11-G[1/1/4/4] (antibody, V domains shown)
VH: QLQLQESGPGLLKPSETLSLTCTVSGGSISSPGYYGGWIRQPPGKGLEWIGSIYKSGSTYHNPSLKSRVTISVDTSKNQFSLKLSSVTAADTAVYYCTRPVVRYFGWFDPWGQGTLVTVSS
VL: AIQLTQSPSSLSASVGDRVTITCRASQGISSALAWYQQKPGKAPKLLIYDASNLESGVPSRFSGSGSGTDFTLTISSLQPEDFATYYCQQFNSYPTFGQGTKVEIK
notes: Chimeric heavy chain constant region: CH1 and hinge from human IgG1 (N5KG1), CH2 and CH3 from human IgG4 (N5KG4PE); also called IgG[1/1/4/4]; N5KG1144 with 4D11 variable regions
With B1, the binding result is given as “binds”.

B2: 4D11-G[4/4/4/1] (antibody, V domains shown)
VH: QLQLQESGPGLLKPSETLSLTCTVSGGSISSPGYYGGWIRQPPGKGLEWIGSIYKSGSTYHNPSLKSRVTISVDTSKNQFSLKLSSVTAADTAVYYCTRPVVRYFGWFDPWGQGTLVTVSS
VL: AIQLTQSPSSLSASVGDRVTITCRASQGISSALAWYQQKPGKAPKLLIYDASNLESGVPSRFSGSGSGTDFTLTISSLQPEDFATYYCQQFNSYPTFGQGTKVEIK
notes: Chimeric heavy chain constant region: CH1, hinge and CH2 from human IgG4 (N5KG4PE, with S228P and L235E), CH3 from human IgG1; also called IgG[4/4/4/1]; N5KG4441 with 4D11 variable regions
For the molecule B2, the binding result was “binds”.

B3: 4D11-G[4/4/1/1] (antibody, V domains shown)
VH: QLQLQESGPGLLKPSETLSLTCTVSGGSISSPGYYGGWIRQPPGKGLEWIGSIYKSGSTYHNPSLKSRVTISVDTSKNQFSLKLSSVTAADTAVYYCTRPVVRYFGWFDPWGQGTLVTVSS
VL: AIQLTQSPSSLSASVGDRVTITCRASQGISSALAWYQQKPGKAPKLLIYDASNLESGVPSRFSGSGSGTDFTLTISSLQPEDFATYYCQQFNSYPTFGQGTKVEIK
notes: Chimeric heavy chain constant region: CH1 and hinge from human IgG4 (N5KG4PE, with S228P and L235E), CH2 and CH3 from human IgG1 (N5KG1); also called IgG[4/4/1/1]; N5KG4411 with 4D11 variable regions
On to B3, for which the binding result is “binds”.

B4: 4D11-G[4/4/1/4] (antibody, V domains shown)
VH: QLQLQESGPGLLKPSETLSLTCTVSGGSISSPGYYGGWIRQPPGKGLEWIGSIYKSGSTYHNPSLKSRVTISVDTSKNQFSLKLSSVTAADTAVYYCTRPVVRYFGWFDPWGQGTLVTVSS
VL: AIQLTQSPSSLSASVGDRVTITCRASQGISSALAWYQQKPGKAPKLLIYDASNLESGVPSRFSGSGSGTDFTLTISSLQPEDFATYYCQQFNSYPTFGQGTKVEIK
notes: Chimeric heavy chain constant region: CH1 and hinge from human IgG4 (N5KG4PE, with S228P and L235E), CH2 from human IgG1, CH3 from human IgG4; also called IgG[4/4/1/4]; N5KG4414 with 4D11 variable regions
As for B4, the binding result is “binds”.
